In publication PMC10592010:

Biological target: EGFP-tagged full-length AR pQ69 mutant (GFP-ARpQ69) (human) (UniProt P10275)
Test: live-cell single-particle tracking

Q: How did the residence time (RT) turn out when “Halo-tagged AR NTD pQ69 with NLS (Halo-ARNTDpQ69-NLS) (from UniProt P10275-1 1-538) (domain or fragment)” was run?
A: Its residence time (RT) is 16 s.
